Where two headings read alike, the source gives them in different places.
Tests used:
human CD3D/E protein [1] = biological target: T1, human CD3D/E protein (human, UniProt P04234 22-105; P07766 23-126); experiment: ELISA or FCM, graded summary
T1 construct: also called human CD3 expressing Jurkat cells

human CD137 protein = biological target: T2, human CD137 protein (human, UniProt Q07011 24-186); experiment: ELISA or FCM, graded summary
T2 construct: also called human CD137 expressing CHO cells
T2 sequence (Q07011 24-186 limits assumed): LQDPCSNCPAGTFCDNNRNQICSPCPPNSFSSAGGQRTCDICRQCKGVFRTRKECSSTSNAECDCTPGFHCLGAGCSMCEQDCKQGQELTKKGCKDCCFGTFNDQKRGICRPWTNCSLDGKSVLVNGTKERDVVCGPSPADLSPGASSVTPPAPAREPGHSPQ

human PD-L1 protein [2] = biological target: T3, human PD-L1 protein (human, UniProt Q9NZQ7 19-238); experiment: FCM or ELISA, graded summary
T3 sequence (Q9NZQ7 19-238 limits assumed): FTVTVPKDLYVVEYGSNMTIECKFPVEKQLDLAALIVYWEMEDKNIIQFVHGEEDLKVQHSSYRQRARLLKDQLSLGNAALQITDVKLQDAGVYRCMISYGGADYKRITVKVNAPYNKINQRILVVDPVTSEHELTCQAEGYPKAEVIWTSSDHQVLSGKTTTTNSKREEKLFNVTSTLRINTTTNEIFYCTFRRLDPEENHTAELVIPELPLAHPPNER

human CD3D/E protein [3] = biological target: T1, human CD3D/E protein; experiment: FCM or ELISA, graded summary
human PD-L1 protein [4] = biological target: T3, human PD-L1 protein; experiment: FCM or ELISA, graded summary; remark: listed apart in the source
human BCMA protein = biological target: T4, human BCMA protein (human, UniProt Q02223 1-54); experiment: FCM or ELISA, graded summary
T4 construct: also called human BCMA expressing NCI-H929 cells; human BCMA overexpressing HEK293 cells
T4 sequence (looked up): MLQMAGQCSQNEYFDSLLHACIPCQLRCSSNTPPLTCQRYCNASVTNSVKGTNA

T1 sequence (P04234 22-105, chain 1 of 2): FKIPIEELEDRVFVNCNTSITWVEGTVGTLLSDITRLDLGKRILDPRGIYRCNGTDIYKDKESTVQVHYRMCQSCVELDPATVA
T1 sequence (P07766 23-126, chain 2 of 2): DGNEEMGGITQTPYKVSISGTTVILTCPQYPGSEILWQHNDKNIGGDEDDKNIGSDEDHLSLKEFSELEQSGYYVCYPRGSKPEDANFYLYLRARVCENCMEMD

B1: Ly305 (anti-CD3 parent) (antibody, V domains shown)
VH: EVQLVESGGGLVQPGGSLRLSCAASGFTFSTYAMNWVRQAPGKGLEWVGRIRSKYNNYATYYADSVKGRFTISRDDSKNSLYLQMNSLKTEDTAVYYCVRHGNFGNSYVSWFAYWGQGTLVTVSS
VL: QAVVTQEPSLTVSPGGTVTLTCRSSTGAVTTSNYANWVQQKPGQAPRGLIGGTNKRAPWTPARFSGSLLGGKAALTITGAQAEDEADYYCALWYSNLWVFGGGTKLTVL
notes: Parent monoclonal antibody used as control; also called anti-CD3 mAb Ly305; parental anti-CD3 mAb
B1: binds (human CD3D/E protein [1]).

B2: Ly1630 (anti-CD137 parent) (antibody, V domains shown)
VH: QVQLVQSGAEVKKPGASVKVSCKASGYTFAGFEMHWVRQAPGQGLEWMGAIDPKTGGTDYNQKFKDRVTMTRDTSISTAYMELSRLRSDDTAVYYCARDLGYFDVWGQGTLVTVSS
VL: DIQMTQSPSSLSASVGDRVTITCRASQDIRSNLNWYQQKPGGAVKLLIYYTSRLHSGVPSRFSGSGSGTDYTLTISSLQPEDFATYFCQQSEKLPRTFGGGTKVEIR
notes: Parent monoclonal antibody used as control; also called anti-CD137 mAb Ly1630
B2: binds (human CD137 protein).

B3: Ly076 (anti-PD-L1 parent) (antibody, V domains shown)
VH: QVQLVQSGAEVKKPGASVKVSCKASGYTFTDFWMSWVRQAPGQGLEWMGQIYPNTGTTHSNEKFKGRVTMTRDTSTSTVYMELSSLRSEDTAVYYCARSYHISTTPNWFAYWGQGTLVTVSS
VL: DIQMTQSPSSLSASVGDRVTITCKASQNVYKKLEWYQQKPGKVPKVLIYHTNILQTGVPSRFSGSGSGTDYTLTISSLQPEDVATYYCYQWNSGPTFGGGTKVEIK
notes: Parent monoclonal antibody used as control; also called anti-PD-L1 mAb Ly076
B3: binds (human PD-L1 protein [2]).

B4: Ly2959 (BCMA/CD3/PD-L1) (other)
heavy 1: QVQLVQSGAEVKKPGASVKVSCKASGYTFTNHIIHWVRQAPGQGLEWMGYINPYPGYHAYNEKFQGRATMTSDTSTSTVYMELSSLRSEDTAVYYCARDGYYRDTDVLDYWGQGTLVTVSSASTKGPSVFPLAPSSKSTSGGTAALGCLVKDYFPEPVTVSWNSGALTSGVHTFPAVLQSSGLYSLSSVVTVPSSSLGTQTYICNVNHKPSNTKVDKKVEPKSCGGGGSGGGGSGGGGSGGGGSEVQLVESGGGLVQPGGSLRLSCAASGFTFSTYAMNWVRQAPGKGLEWVGRIRSKYNNYATYYADSVKGRFTISRDDSKNSLYLQMNSLKTEDTAVYYCVRHGNFGNSYVSWFAYWGQGTLVTVSSGGGGSDKTHTCPPCPAPELLGPSVFLFPPKPKDTLMISRTPEVTCVVVDVSHEDPEVKFNWYVDGVEVHNAKTKPREEQYNSTYRVVSVLTVLHQDWLNGKEYKCKVSNKALGAPIEKTISKAKGQPREPQVYTLPPSREEMTKNQVSLWCLVKGFYPSDIAVEWESNGQPENNYKTTPPVLDSDGSFFLYSKLTVDKSRWQQGNVFSCSVMHEALHNHYTQKSLSLSPGKGGGGSGGGGSGGGGSGGGGSQVQLVQSGAEVKKPGASVKVSCKASGYTFTDFWMSWVRQAPGQGLEWMGQIYPNTGTTHSNEKFKGRVTMTRDTSTSTVYMELSSLRSEDTAVYYCARSYHISTTPNWFAYWGQGTLVTVSS
heavy 2: QVQLVQSGAEVKKPGASVKVSCKASGYTFTNHIIHWVRQAPGQGLEWMGYINPYPGYHAYNEKFQGRATMTSDTSTSTVYMELSSLRSEDTAVYYCARDGYYRDTDVLDYWGQGTLVTVSSASTKGPSVFPLAPSSKSTSGGTAALGCLVKDYFPEPVTVSWNSGALTSGVHTFPAVLQSSGLYSLSSVVTVPSSSLGTQTYICNVNHKPSNTKVDKKVEPKSCGGGGSGGGGSGGGGSGGGGSQAVVTQEPSLTVSPGGTVTLTCRSSTGAVTTSNYANWVQQKPGQAPRGLIGGTNKRAPWTPARFSGSLLGGKAALTITGAQAEDEADYYCALWYSNLWVFGGGTKLTVLGGGGSDKTHTCPPCPAPELLGPSVFLFPPKPKDTLMISRTPEVTCVVVDVSHEDPEVKFNWYVDGVEVHNAKTKPREEQYNSTYRVVSVLTVLHQDWLNGKEYKCKVSNKALGAPIEKTISKAKGQPREPQVYTLPPSREEMTKNQVSLSCAVKGFYPSDIAVEWESNGQPENNYKTTPPVLDSDGSFFLVSKLTVDKSRWQQGNVFSCSVMHEALHNRFTQKSLSLSPGKGGGGSGGGGSGGGGSGGGGSDIQMTQSPSSLSASVGDRVTITCKASQNVYKKLEWYQQKPGKVPKVLIYHTNILQTGVPSRFSGSGSGTDYTLTISSLQPEDVATYYCYQWNSGPTFGGGTKVEIK
light: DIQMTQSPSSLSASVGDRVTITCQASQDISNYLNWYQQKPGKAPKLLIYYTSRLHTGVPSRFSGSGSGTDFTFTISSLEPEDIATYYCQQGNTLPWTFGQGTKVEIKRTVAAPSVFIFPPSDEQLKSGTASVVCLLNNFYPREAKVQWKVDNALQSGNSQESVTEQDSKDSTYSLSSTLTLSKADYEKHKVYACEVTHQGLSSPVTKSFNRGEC
notes: Multi-specific (tri-specific) antibody with three different chains HC1, HC2, LC1; also called BCMA(a) /CD3 /PD-L1
B4: binds (human CD3D/E protein [3]); binds (human PD-L1 protein [4]); binds (human BCMA protein).

Reference: patent EP4806922A2 (Lyvgen Biopharma Holdings Limited, dated 2026)
